In experiment [1] the target is T1, TROP2 on TROP2-positive NCI-H1975 cells (human, UniProt P09758 27-323).
T1 sequence: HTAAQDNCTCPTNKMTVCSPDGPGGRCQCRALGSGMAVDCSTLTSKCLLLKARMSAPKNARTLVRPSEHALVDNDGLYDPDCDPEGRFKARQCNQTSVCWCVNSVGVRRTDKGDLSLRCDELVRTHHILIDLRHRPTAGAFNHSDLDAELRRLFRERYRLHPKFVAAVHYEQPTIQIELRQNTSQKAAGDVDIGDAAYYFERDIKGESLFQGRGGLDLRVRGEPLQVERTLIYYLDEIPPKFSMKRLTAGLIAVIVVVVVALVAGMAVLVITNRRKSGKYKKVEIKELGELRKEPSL
The experiment is described as follows: cell-based or functional assay.

The target in experiment [2] is T1, TROP2 on TROP2-positive NCI-H1975 cells. Put plainly: binding to NCI-H1975 cells at pH 6.4, maximal MFI.
The target is the same in experiment [3]. The experiment is described as follows: cell-based or functional assay. The source holds these as a separate data set.
For experiment [4], the target named is T2, Human TROP2 Protein, His Tag (Acro Biosystems) (human, UniProt P09758 27-274).
T2 construct: not shown: His tag
T2 sequence (looked up): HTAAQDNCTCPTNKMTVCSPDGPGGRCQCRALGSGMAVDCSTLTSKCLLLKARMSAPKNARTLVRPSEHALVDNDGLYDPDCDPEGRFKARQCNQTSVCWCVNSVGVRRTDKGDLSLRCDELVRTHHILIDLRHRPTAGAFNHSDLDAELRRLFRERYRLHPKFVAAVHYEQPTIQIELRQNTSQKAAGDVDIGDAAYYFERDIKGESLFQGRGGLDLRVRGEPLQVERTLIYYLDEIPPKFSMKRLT
Put plainly: BLI (Octet). A general note: In BLI a coated tip is dipped into the sample, and binding shifts an interference pattern.

Experiment [5] has as its target T3, Human TROP2 Protein, His Tag (Acro Biosystems) (human, UniProt P09758 27-274).
T3 construct: also called TACSTD2; not shown: His tag
T3 sequence (looked up): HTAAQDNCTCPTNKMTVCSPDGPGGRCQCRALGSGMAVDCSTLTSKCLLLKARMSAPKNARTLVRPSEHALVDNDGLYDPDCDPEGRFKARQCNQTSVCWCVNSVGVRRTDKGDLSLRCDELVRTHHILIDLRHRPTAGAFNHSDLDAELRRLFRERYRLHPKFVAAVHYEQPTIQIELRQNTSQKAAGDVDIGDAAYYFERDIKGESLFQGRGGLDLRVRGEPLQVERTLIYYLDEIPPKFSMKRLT
Put plainly: BLI (Octet) [2/2].

Data on 17 molecules can be found in US20260274985A1 (MYTHIC THERAPEUTICS, published 2026).

B1: MYT13370 (antibody, human IgG1, V domains shown)
VH: QVQLQQSGSELKKPGASVKVSCKASGYTFTNYGMNWVKQAPGQGLKWMGWINTYTGEPTYTDHFKGRFAFSLDTSVSTAYLQISSLKADDTAVYFCARGGFGSSYWYFDVWGQGSLVTVSS
VL: DIQLTQSPSSLSASVGDRVSITCKASQDVHIAHAWYQQKPGKAPKLLIYSASYRYTGVPDRFSGSGSGTDFTLTISSLQPEDFAVYYCQQHYITPLTFGAGTKVEIK
notes: also called sacituzumab HC-LC pairing variant; Sacituzumab pH variant
Take B1: in experiment [1], the “FOW H1975 (10 nM)” value is 1.43 fold over parent antibody. In addition, the “Max MFI (@ pH 6.4)-H1975” value in experiment [2] is 13400 MFI. The “Cytotox Fold over datopotamab (FOD)” value in experiment [3] came out at 1.28 fold over datopotamab.

B2: MYT13270 (antibody, V domains shown)
VH: QVQLVQSGAEVKKPGASVKVSCKASGYTFTTAGMQWVRQAPGQGLEWMGWINTHSGVPKYAEDFKGRVTISADTSTSTAYLQLSSLKSEDTAVYYCARSGHGSSYWYFDVWGQGTLVTVSS
VL: DIQMTQSPSSLSASVGDRVTITCKASQDVSTAVAWYQQKPGKAPKLLIYSASYRYTGVPSRFSGSGSGTDFTLTISSLQPEDFAVYYCQHHYITPLTFGQGTKLEIK
notes: Full-length IgG from Expi293 supernatant; also called datopotamab heavy chain and light chain pairing variant
As to B2, the binding result in experiment [4] is recorded as “binds”.

B3: MYT13427 (antibody, human IgG1, V domains shown)
VH: QVQLQQSGSELKKPGASVKVSCKASGYTFTNYGMNWVKQAPGQGLKWMGWINTYTGEPTYTDDHKGRFAFSLDTSVSTAYLQISSLKADDTAVYFCARGGFGSSYWYFDVWGQGSLVTVSS
VL: DIQLTQSPSSLSASVGDRVSITCKASQDVHIAVAWYQQKPGKAPKLLIYSHSYRYTGVPDRFSGSGSGTDFTLTISSLQPEDFAVYYCQQHYHTPLTFGAGTKVEIK
notes: as for B1
Regarding B3, the “FOW H1975 (10 nM)” value in experiment [1] worked out at 1.56 fold over parent antibody. The “Max MFI (@ pH 6.4)-H1975” value in experiment [2] came to 6110 MFI. Further, in experiment [3], the “Cytotox Fold over datopotamab (FOD)” value was 1.19 fold over datopotamab.

B4: MYT13409 (antibody, V domains shown)
VH: QVQLQQSGSELKKPGASVKVSCKASGYTFTNYGMNWVKQAPGQGLKWMGWINTYTGEPTYTHDFKGRFAFSLDTSVSTAYLQISSLKADDTAVYFCARGGFGSSYWYFDVWGQGSLVTVSS
VL: DIQLTQSPSSLSASVGDRVSITCKASQDVSIAVAWYQQKPGKAPKLLIYSHHYRYTGVPDRFSGSGSGTDFTLTISSLQPEDFAVYYCQQHYITPLTFGAGTKVEIK
notes: Sacituzumab HC-LC pairing variant
As to B4, the binding result in experiment [5] was “binds”.

B5: MYT13269 (antibody, V domains shown)
VH: QVQLVQSGAEVKKPGASVKVSCKASGYTFTTAGMQWVRQAPGQGLEWMGWINTHSGVPKYAEDFKGRVTISADTSTSTAYLQLSSLKSEDTAVYYCAHSGFGSSYWYFDVWGQGTLVTVSS
VL: DIQMTQSPSSLSASVGDRVTITCKASQDVSTAVAWYQQKPGKAPKLLIYSASYRYTGVPSRFSGSGSGTDFTLTISSLQPEDFAVYYCQHHYITPLTFGQGTKLEIK
notes: as for B2
For the molecule B5, the binding result in experiment [4] was “binds”.

B6: MYT13259 (antibody, V domains shown)
VH: QVQLVQSGAEVKKPGASVKVSCKASGYTFTTAGMQWVRQAPGQGLEWMGWINTHSGVPKYAEDFKGRVTISADTSTSTAYLQLSSLKSEDTAVYYCARSGFGSHYWYFDVWGQGTLVTVSS
VL: DIQMTQSPSSLSASVGDRVTITCKASQDHSTAVAWYQQKPGKAPKLLIYSASYRYTGVPSRFSGSGSGTDFTLTISSLQPEDFAVYYCQQHYITPLTFGQGTKLEIK
notes: as for B2
Turning to B6, in experiment [4], the binding result is given as “binds”.

B7: MYT13261 (antibody, V domains shown)
VH: QVQLVQSGAEVKKPGASVKVSCKASGYTFTTAGMQWVRQAPGQGLEWMGWINTHSGVPKYAEDFKGRVTISADTSTSTAYLQLSSLKSEDTAVYYCAHSGFGSSYWYFDVWGQGTLVTVSS
VL: DIQMTQSPSSLSASVGDRVTITCKASQDVSTAVAWYQQKPGKAPKLLIYSAHYRYTGVPSRFSGSGSGTDFTLTISSLQPEDFAVYYCQQHYITPLTFGQGTKLEIK
notes: as for B2
On to B7, for which the binding result in experiment [4] is on record as “binds”.

B8: MYT13411 (antibody, V domains shown)
VH: QVQLQQSGSELKKPGASVKVSCKASGYTFTNYGMNWVKQAPGQGLKWMGWINTYTGEPTYTDDHKGRFAFSLDTSVSTAYLQISSLKADDTAVYFCARGGFGSSYWYFDVWGQGSLVTVSS
VL: DIQLTQSPSSLSASVGDRVSITCKASQDVSIAVAWYQQKPGKAPKLLIYSHHYRYTGVPDRFSGSGSGTDFTLTISSLQPEDFAVYYCQQHYITPLTFGAGTKVEIK
notes: as for B4
As for B8, the binding result in experiment [5] is “binds”.

B9: MYT13410 (antibody, V domains shown)
VH: QVQLQQSGSELKKPGASVKVSCKASGYTFTNYGMNWVKQAPGQGLKWMGWINTYTGEPTYTDHFKGRFAFSLDTSVSTAYLQISSLKADDTAVYFCARGGFGSSYWYFDVWGQGSLVTVSS
VL: DIQLTQSPSSLSASVGDRVSITCKASQDVSIAVAWYQQKPGKAPKLLIYSHHYRYTGVPDRFSGSGSGTDFTLTISSLQPEDFAVYYCQQHYITPLTFGAGTKVEIK
notes: as for B4
Regarding B9, the binding result in experiment [5] is reported as “binds”.

B10: MYT13262 (antibody, V domains shown)
VH: QVQLVQSGAEVKKPGASVKVSCKASGYTFTTAGMQWVRQAPGQGLEWMGWINTHSGVPKYAEDFKGRVTISADTSTSTAYLQLSSLKSEDTAVYYCARSGHGSSYWYFDVWGQGTLVTVSS
VL: DIQMTQSPSSLSASVGDRVTITCKASQDVSTAVAWYQQKPGKAPKLLIYSAHYRYTGVPSRFSGSGSGTDFTLTISSLQPEDFAVYYCQQHYITPLTFGQGTKLEIK
notes: as for B2
Take B10: the binding result in experiment [4] is reported as “binds”.

B11: MYT13271 (antibody, V domains shown)
VH: QVQLVQSGAEVKKPGASVKVSCKASGYTFTTAGMQWVRQAPGQGLEWMGWINTHSGVPKYAEDFKGRVTISADTSTSTAYLQLSSLKSEDTAVYYCARSGFGSHYWYFDVWGQGTLVTVSS
VL: DIQMTQSPSSLSASVGDRVTITCKASQDVSTAVAWYQQKPGKAPKLLIYSASYRYTGVPSRFSGSGSGTDFTLTISSLQPEDFAVYYCQHHYITPLTFGQGTKLEIK
notes: as for B2
In the case of B11, in experiment [4], the binding result was “binds”.

B12: MYT13428 (antibody, human IgG1, V domains shown)
VH: QVQLQQSGSELKKPGASVKVSCKASGYTFTNYGMNWVKQAPGQGLKWMGWINTYTGEPTYTDDFHGRFAFSLDTSVSTAYLQISSLKADDTAVYFCARGGFGSSYWYFDVWGQGSLVTVSS
VL: DIQLTQSPSSLSASVGDRVSITCKASQDVHIAVAWYQQKPGKAPKLLIYSHSYRYTGVPDRFSGSGSGTDFTLTISSLQPEDFAVYYCQQHYHTPLTFGAGTKVEIK
notes: also called sacituzumab HC-LC pairing variant
Regarding B12, in experiment [1], the “FOW H1975 (10 nM)” value is 1.55 fold over parent antibody. For the same molecule, the “Max MFI (@ pH 6.4)-H1975” value in experiment [2] was determined as 6720 MFI. For the same molecule, the “Cytotox Fold over datopotamab (FOD)” value in experiment [3] worked out at 1.18 fold over datopotamab.

B13: MYT13412 (antibody, V domains shown)
VH: QVQLQQSGSELKKPGASVKVSCKASGYTFTNYGMNWVKQAPGQGLKWMGWINTYTGEPTYTDDFHGRFAFSLDTSVSTAYLQISSLKADDTAVYFCARGGFGSSYWYFDVWGQGSLVTVSS
VL: DIQLTQSPSSLSASVGDRVSITCKASQDVSIAVAWYQQKPGKAPKLLIYSHHYRYTGVPDRFSGSGSGTDFTLTISSLQPEDFAVYYCQQHYITPLTFGAGTKVEIK
notes: as for B4
As to B13, the binding result in experiment [5] was “binds”.

B14: MYT13408 (antibody, V domains shown)
VH: QVQLQQSGSELKKPGASVKVSCKASGYTFTNYGMNWVKQAPGQGLKWMGWINTYTGEPTHTDDFKGRFAFSLDTSVSTAYLQISSLKADDTAVYFCARGGFGSSYWYFDVWGQGSLVTVSS
VL: DIQLTQSPSSLSASVGDRVSITCKASQDVSIAVAWYQQKPGKAPKLLIYSHHYRYTGVPDRFSGSGSGTDFTLTISSLQPEDFAVYYCQQHYITPLTFGAGTKVEIK
notes: as for B4
For the molecule B14, the binding result in experiment [5] is “binds”.

B15: MYT13258 (antibody, V domains shown)
VH: QVQLVQSGAEVKKPGASVKVSCKASGYTFTTAGMQWVRQAPGQGLEWMGWINTHSGVPKYAEDFKGRVTISADTSTSTAYLQLSSLKSEDTAVYYCARSGHGSSYWYFDVWGQGTLVTVSS
VL: DIQMTQSPSSLSASVGDRVTITCKASQDHSTAVAWYQQKPGKAPKLLIYSASYRYTGVPSRFSGSGSGTDFTLTISSLQPEDFAVYYCQQHYITPLTFGQGTKLEIK
notes: as for B2
B15: in experiment [4], the binding result is “binds”.

B16: MYT13280 (antibody, V domains shown)
VH: QVQLQESGPGLVKPSETLSLTCTVSGGSISSYGVHWIRQPPGKGLEWIGVIWTSGVTDYNSALMGRVTISVDTSKNQFSLKLSSVTAADTAVYYCARDGDYDRYTHDYWGQGTLVTVSS
VL: DIVMTQSPDSLAVSLGERATINCRASKSVSTSGYSYMHWYQQKPGQPPKLLIYLASNLHSGVPDRFSGSGSGTDFTLTISSLQAEDVAVYYCQHSRELPYTFGQGTKLEIK
notes: Full-length IgG from Expi293 supernatant; also called hu7E6SVG heavy chain and light chain pairing variant
As to B16, the binding result in experiment [4] is “binds”.

B17: MYT13304 (antibody, V domains shown)
VH: QVQLQESGPGLVKPSETLSLTCTVSGGSISSYGVHWIRQPPGKGLEWIGVIWTSGVTDYNSALMGRVTISVDTSKNQFSLKLSSVTAADTAVYYCARDGDYDHYTMDYWGQGTLVTVSS
VL: DIVMTQSPDSLAVSLGERATINCRASKSVSTSGYSYMHWYQQKPGQPPKLLIYLASNLESGVPDRFSGSGSGTDFTLTISSLQAEDVAVYYCQHSRELPYHFGQGTKLEIK
notes: as for B16
Consider B17, for which the binding result in experiment [4] is “binds”.
